Test results: publication PMC5974088

Experiments:
Test in all cases: ITC; 200-400 μM 53BP1 Tudor domain (wt or mutant) injected into 200 μl of 22-44 μM TIRR or Nudt16 (wt or mutant); 25 °C; 20 mM Tris-HCl pH 7.5, 150 mM NaCl; single-site binding model
[1] = molecular target: TIRR H106R (not stated (human or mouse cDNA cloned)) (UniProt Q8VHN8)
[2] = molecular target: TIRR H106K (not stated (human or mouse cDNA cloned)) (UniProt Q8VHN8)
[3] = molecular target: TIRR H106W (not stated (human or mouse cDNA cloned)) (UniProt Q8VHN8)
[4] = molecular target: TIRR P105A (not stated (human or mouse cDNA cloned)) (UniProt Q8VHN8)
[5] = molecular target: TIRR H106Δ (not stated (human or mouse cDNA cloned)) (UniProt Q8VHN8)
[6] = molecular target: TIRR I12G (not stated (human or mouse cDNA cloned)) (UniProt Q8VHN8)
[7] = molecular target: TIRR K10E (not stated (human or mouse cDNA cloned)) (UniProt Q8VHN8)
[8] = molecular target: TIRR L20A (not stated (human or mouse cDNA cloned)) (UniProt Q8VHN8)
[9] = molecular target: Nudt16 ^W105 (H. sapiens) (UniProt Q96DE0)
[10] = molecular target: TIRR H106Q (not stated (human or mouse cDNA cloned)) (UniProt Q8VHN8)
[11] = molecular target: Nudt16 ^H105 (H. sapiens) (UniProt Q96DE0)
[12] = molecular target: TIRR H106A (not stated (human or mouse cDNA cloned)) (UniProt Q8VHN8)
[13] = molecular target: Nudt16 ^H105 with R5, L7, V100 substituted by TIRR residues K10, I12, L101 (H. sapiens) (UniProt Q96DE0)
[14] = molecular target: TIRR H106Y (not stated (human or mouse cDNA cloned)) (UniProt Q8VHN8)
[15] = molecular target: TIRR I12A (not stated (human or mouse cDNA cloned)) (UniProt Q8VHN8)

Sequence of 53BP1 tandem Tudor domain (1484-1603) (Q12888 other isoform, or with tags, fused parts or gaps): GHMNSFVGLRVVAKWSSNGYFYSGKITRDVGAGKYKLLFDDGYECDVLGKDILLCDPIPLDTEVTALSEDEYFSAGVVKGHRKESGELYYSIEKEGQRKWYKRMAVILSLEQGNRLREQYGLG

Kd [1]: 1.9 µM
Kd [2]: 6.8 µM
Kd [3]: 0.5 µM
Kd [4]: 4.3 µM
Kd [5]: 17.8 µM
Kd [6]: 38.3 µM
Kd [7]: 20.4 µM
Kd [8]: 25.5 µM
Kd [9]: 3.6 µM
Kd [10]: 5.1 µM
Kd [11]: 7.1 µM
Kd [12]: 3.9 µM
Kd [13]: 1 µM
Kd [14]: 1.4 µM
Kd [15]: 4.9 µM
Substance: 53BP1 tandem Tudor domain (1484-1603) (from UniProt Q12888 1484-1603) (domain or fragment)
